First the molecules themselves.
B1: 6T (PpDAM6 promoter site-II) (dsDNA)
DNA 1: GGTGGGCCCAATCAAGTGACATGACAGCGA
DNA 2: TCGCTGTCATGTCACTTGATTGGGCCCACC
B2: 6mT (GGGCCC to AAATTT) (dsDNA)
DNA 1: GGTAAATTTAATCAAGTGACATGACAGCGA
DNA 2: TCGCTGTCATGTCACTTGATTAAATTTACC
B3: 5mT2 (GGG to TTT) (dsDNA)
DNA 1: CATGTGTCATGGTTTTCTCAATCAAGTGGC
DNA 2: GCCACTTGATTGAGAAAACCATGACACATG
B4: ABF2-F (PpABF2 promoter TBS) (dsDNA)
DNA 1: ACCTAACCTAAGTGGGACCATGCCCTTTTT
DNA 2: AAAAAGGGCATGGTCCCACTTAGGTTAGGT
B5: 5T2 (dsDNA)
DNA 1: B3 DNA 1 with T14G, T15G, T16G
DNA 2: B3 DNA 2 with A15C, A16C, A17C

Where a chain is given by its changes, count along the chain named.

This data set has as its target PpTCP20-GST (Prunus persica var. nectarina cv. …, UniProt A0A251Q833 1-310). The data set can be described thus: EMSA. (In general: In EMSA bound probe runs differently from free probe, usually more slowly.)
B1: the binding result was “binds”. In the case of B2, the binding result is recorded as “no binding”. B3: the binding result was “no binding”.

Consider B4, for which the binding result was “binds”. As for B5, the entry is “binds”.

For the origin of these results see PMC7031059.
